Biological target: β subunit of Roseobacter denitrificans propionyl-coenzyme A carboxylase (Roseobacter denitrificans)
Assay: crystal structure

“β subunit of Roseobacter denitrificans propionyl-coenzyme A carboxylase” was tested, and the stoichiometry N was 6.

— PMC2925307
